In patent US8420776B2, “Ube2G2 binding domain in the ubiquitin ligase gp78 and methods of use thereof” (The United States of America, as Represented by the …, priority 2004, dated 2013):

T1: Ube2G2/MmUbc7 (Mus musculus, UniProt P60605)
T1 construct: made in house; host or cells: coupled in vitro transcription/translation in rabbit reticulocyte lysate or wheat germ
T1 sequence (P60605 1-165): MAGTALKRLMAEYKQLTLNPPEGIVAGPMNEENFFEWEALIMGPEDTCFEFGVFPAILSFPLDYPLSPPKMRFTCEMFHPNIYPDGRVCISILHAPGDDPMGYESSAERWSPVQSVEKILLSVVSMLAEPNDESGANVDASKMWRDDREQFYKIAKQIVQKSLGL

T2: His6-Ube2G2 (Mus musculus, UniProt P60605)
T2 construct: made in house; host or cells: bacteria (pExp17, Gateway)
T2 sequence (P60605 1-165): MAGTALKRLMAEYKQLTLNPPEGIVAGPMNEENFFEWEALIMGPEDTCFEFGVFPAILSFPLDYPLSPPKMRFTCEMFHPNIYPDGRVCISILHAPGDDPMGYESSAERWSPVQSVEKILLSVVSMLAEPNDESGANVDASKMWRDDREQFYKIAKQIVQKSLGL

T3: endogenous Ube2G2 (Homo sapiens, UniProt P60604)
T3 construct: endogenous in cells; host or cells: HEK 293T
T3 sequence (P60604 1-165): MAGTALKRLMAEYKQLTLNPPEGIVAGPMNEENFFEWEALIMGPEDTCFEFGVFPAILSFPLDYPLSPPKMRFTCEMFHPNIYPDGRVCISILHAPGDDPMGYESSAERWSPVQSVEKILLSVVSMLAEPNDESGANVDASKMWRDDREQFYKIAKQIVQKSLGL

T4: Ubc7p (Saccharomyces cerevisiae, UniProt Q02159)
T4 construct: made in house; host or cells: in vitro translation in wheat germ from pCDNA-DEST47
T4 sequence (Q02159 1-165): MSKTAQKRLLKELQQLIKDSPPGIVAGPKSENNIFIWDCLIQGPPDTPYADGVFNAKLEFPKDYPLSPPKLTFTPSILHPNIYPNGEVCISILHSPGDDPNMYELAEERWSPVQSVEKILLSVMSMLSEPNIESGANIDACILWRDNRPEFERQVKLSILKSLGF

T5: Ube2G1 (Rattus norvegicus, UniProt P62255)
T5 construct: made in house; host or cells: in vitro translation in wheat germ (similar results in reticulocyte lysate)
T5 sequence (P62255 1-170): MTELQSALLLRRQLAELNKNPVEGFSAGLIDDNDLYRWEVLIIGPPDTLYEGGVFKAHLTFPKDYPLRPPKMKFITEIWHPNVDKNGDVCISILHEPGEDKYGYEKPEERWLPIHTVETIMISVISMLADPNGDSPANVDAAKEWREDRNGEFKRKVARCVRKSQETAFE


Key:
Ube2G2/MmUbc7 = target: T1, Ube2G2/MmUbc7; assay: GST pull-down binding of in vitro translated 35S-Met Ube2G2/MmUbc7; parameters: species or system human; settings: GST fusion pull-down; 35S-Met labeled E2
His6-Ube2G2 = target: T2, His6-Ube2G2; assay: Direct binding of bacterially expressed His6-Ube2G2 to GST fusions; settings: purified E2, anti-His6 immunoblot
Protocol: (§1) GST fusions were purified from E. Coli. Binding was carried out using equi-molar amount of fusion proteins measured by Commassie blue staining. Generally, 20 picomoles/sample were used. In vitro translated E2 was generated by coupled transcription and translation using 35S methionine in either wheat germ or rabbit reticulocyte lysate. Binding assays using in vitro translated E2 was carried out by incubating GST protein pre-bound to Glutathione-sepharose 4B with […] of ^35S-methionine labeled E2 in binding buffer (25 mM Tris-HCl, pH 7.4; 50 mM NaCl, 5 mM DTT; and 0.5% NP-40) overnight at 4° C. Beads were washed with binding buffer and resolved by SDS-PAGE under reducing conditions. Analysis was by Storm PhosphoImager (Applied Biosystems, Foster City, Calif.). Direct binding assays used wild type His6-MmUbc7 (His6-Ube2G2) and Glutathione-sepharose bound GST fusions. Beadbound GST protein was incubated with 100 ng purified His6-MmUbc7 in binding buffer and washed and eluted as above. After transfer to Hybond-P (Amersham Biosciences) binding was assessed with anti-His6 followed by Enhanced Chemiluminescence ECL; Pierce). Ubiquitin binding studies were performed with binding and washing as above using 1 μg K48 tetra-ubiquitin produced as described (Piotrowski et al., 1997). Detection was by anti-ubiquitin immunoblotting.

endogenous Ube2G2 = target: T3, endogenous Ube2G2; assay: Co-immunoprecipitation of endogenous Ube2G2 with GFP fusions in HEK 293T cells; format: cell-based; settings: anti-GFP IP
Protocol: Transfections of HT1080, NIH 3T3 and HEK 293T cells were carried out ˜24 hr after plating using Polyfect (Qiagen, Valencia, Calif.) and cells harvested after ˜48 hr. J558 cells were transfected by electroporation using Bio-rad GENE pulser II at settings of 250 v, 950uF. Vector without insert was used to equalize total plasmid. In most experiments 0.15 μg of pEGFP-C1 served as an internal control. For experiments not involving immunoprecipitation, 6×10^5 cells were plated in 6 well plates and cell lysis was with Mammalian Protein Extraction Reagent (Pierce). […] Supernatants were analyzed after a 10,000×g centrifugation using standard techniques for immunoprecipitation, SDS-PAGE, immunoblotting and ECL. […]
FIG. 6 depicts the specific binding of gp78 residues 574-611 (of SEQ ID NO:2) to endogenous Ube2G2 in HEK 293T cells. Cells were transfected with plasmids encoding GFP fusions of the indicated regions of gp78, and co-immunoprecipitation was evaluated. […]
To determine the specificity of E2 binding in cells, GFP fusions encompassing the E2 binding region were expressed in cells, and co-immunoprecipitation of endogenous E2 was tested using antibodies raised specifically against Ube2g1, Ube2G2 and UbcH5B (FIG. 19B). […] In contrast, and consistent with the in vitro binding data in FIG. 18, no association with endogenous UbcH5B or Ube2g1 was detected (FIG. 19B third and fourth panels, left). […]

gp78 = assay: Cycloheximide chase of gp78 in transfected cells; format: cell-based; settings: compared to wild type gp78
Protocol: (§2) Transfections of HT1080, NIH 3T3 and HEK 293T cells were carried out ˜24 hr after plating using Polyfect (Qiagen, Valencia, Calif.) and cells harvested after ˜48 hr. J558 cells were transfected by electroporation using Bio-rad GENE pulser II at settings of 250 v, 950uF. Vector without insert was used to equalize total plasmid. In most experiments 0.15 μg of pEGFP-C1 served as an internal control. For experiments not involving immunoprecipitation, 6×10^5 cells were plated in 6 well plates and cell lysis was with Mammalian Protein Extraction Reagent (Pierce). For immunoprecipitation, 2.4×10^6 cells were seeded in 100 mm dishes and cells were lysed in RIPA buffer (1×PBS, 1% Nonidet P40. 0.5% sodium deoxycholate, 0.1% SDS). Lysis buffers were supplemented with Protease Inhibitor Cocktail (Sigma) and 10 mM iodoacetamide. Supernatants were analyzed after a 10,000×g centrifugation using standard techniques for immunoprecipitation, SDS-PAGE, immunoblotting and ECL. Treatment of cells with MG132 (Sigma) was at 50 μM for eight hr. Cycloheximnide was used at 50 μg/ml. All cells were collected at the end of the six hr chase.
(§3) To evaluate protein turnover in more detail, cycloheximide chase experiments were performed (FIGS. 20C and 20D). […] In agreement with FIG. 20A, CD3-δ degradation was accelerated with wild type gp78 (FIGS. 20C and 20D middle panels; effects of full-length forms of gp78 on CD3-δ from FIGS. 20C and 20D are quantified in FIG. 20E).

ERAD substrate CD3-δ = assay: Cycloheximide chase of CD3-δ in co-transfected cells; format: cell-based; settings: co-transfection with HA-CD3-δ
Protocol: as §2, §3

UbcH5B = target: T6, UbcH5B (Homo sapiens, UniProt P62837); assay: GST pull-down binding of in vitro translated UbcH5B; settings: GST fusion pull-down
T6 construct: made in house; host or cells: in vitro translation in wheat germ
T6 sequence (P62837 whole entry, the tested form may be a part): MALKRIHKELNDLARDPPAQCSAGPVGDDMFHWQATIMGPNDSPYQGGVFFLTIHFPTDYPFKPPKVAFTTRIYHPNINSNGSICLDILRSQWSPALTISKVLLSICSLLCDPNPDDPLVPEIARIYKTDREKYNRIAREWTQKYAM
Protocol: as §1, with “immunoblotting. […]” for “immunoblotting.”

Ubc7p = target: T4, Ubc7p; assay: GST pull-down binding of in vitro translated Ubc7p; parameters: species or system yeast; settings: GST fusion pull-down
Protocol: as §1, with “immunoblotting. […]” for “immunoblotting.”

[1] = target: T7, lysine 48-linked (K48) tetra-ubiquitin (Homo sapiens, UniProt P0CG47); assay: Tetra-ubiquitin binding to GST fusions; settings: anti-ubiquitin immunoblot
T7 construct: 1 μg K48 tetra-ubiquitin produced as described (Piotrowski et al., 1997); made in house
Protocol: as §1

Ube2G1 = target: T5, Ube2G1; assay: GST pull-down binding of in vitro translated Ube2G1; settings: GST fusion pull-down
Excerpt: Plasmids encoding the following have been described: rat Ubc7 (Ube2g1) (Lin and Wing, 1999); UbcH5B (Jensen et al., 1995); Myc-MmUbc7, C89S Myc-MmUbc7, HA-CD3-δ and 2B4 TCR-α (Tiwari and Weissman, 2001); GST-gp78 309 to 643, 508 or 428 and full length gp78 and the double RING finger mutation gp78Rf-m in pCINeo (Fang et al., 2001); and GST-UBA-Cbl-b (Davies et al., 2004). Plasmids encoding Ubc7p and His6-MmUbc7 were generated by PCR and subcloned into pCDNA-DEST47 or pExp17 respectively using Gateway (Invitrogen, Carlsbad, Calif.). GST-AO7 (92 to 259) was subcloned from full length A07 (Lorick et al., 1999). GST-gp78 beginning at 429, 503, 522, 542, 561, 574, 587, or 596 and ending at 643 GST-gp78 beginning at 435 and ending at 507 and GST-Cue1p 24-203 (Cue1pC) were generated by PCR and cloning into pGEX4T-1 (Amersham Biosciences, Piscataway, N.J.). N-terminal Flag-tagged constructs were created by PCR and cloning into pFlag-CMV6 (Sigma). N-terminal GFP-tagged constructs were generated by subcloning from pFLAG-CMV6 to pEGFP-C1 (BD Biosciences, Palo Alto, Calif.). […]
GST fusions were purified from E. Coli. Binding was carried out using equi-molar amount of fusion proteins measured by Commassie blue staining. […] After transfer to Hybond-P (Amersham Biosciences) binding was assessed with anti-His6 followed by Enhanced Chemiluminescence ECL; Pierce). […]

Row | Molecule | binding to in vitro translated Ube2G2/MmUbc7 (Ube2G2/MmUbc7) | direct binding of His6-Ube2G2 (His6-Ube2G2) | co-immunoprecipitation of endogenous Ube2G2 (endogenous Ube2G2) | gp78 stability (gp78) | effect on CD3-δ degradation (ERAD substrate CD3-δ) | binding to in vitro translated UbcH5B (UbcH5B) | binding to in vitro translated yeast Ubc7p (Ubc7p) | binding of K48 tetra-ubiquitin [1] | binding to in vitro translated Ube2G1 (Ube2G1)
1 | E2-m2: GST-gp78 fusion with residues 579-584 (QRMLVQ) mutated to AAAGGG; in b274 the same mutation in a GFP fusion (protein) MPLLFLERFPWPSLRTYTGLSGLALLGTIISAYRALSQPEAGPGEPDQLTASLQPEPPAPARPSAGGPRARDVAQYLLSDSLFVWVLVNTACCVLMLVAKLIQCIVFGPLRVSERQHLKDKFWNFIFYKFIFIFGVLNVQTVEEVVMWCLWFAGLVFLHLMVQLCKDRFEYLSFSPTTPMSSHGRVLSLLVAMLLSCCGLAAVCSITGYTHGMHTLAFMAAESLLVTVRTAHVILRYVIHLWDLNHEGTWEGKGTYVYYTDFVMELTLLSLDLMHHIHMLLFGNIWLSMASLVIFMQLRYLFHEVQRRIRRHKNYLRVVGNMEARFAVATPEELAVNNDDCAICWDSMQAARKLPCGHLFHNSCLRSWLEQDTSCPTCRMSLNIADNNRVREEHQGENLDENLVPVAAAEGRPRLNQHNHFFHFDGSRIASWLPSFSVEVMHTTNILGITQASNSQLNAMAHQIQEMFPQVPYHLVLQDLQLTRSVEITTDNILEGRIQVPFPTQRSDSIRPALNSPVERPSSDQEEGETSAQTERVPLDLSPRLEETLDFGEVEVEPSEVEDFEARGSRFSKSADERAAAGGGRKDELLQQARKRFLNKSSEDDAASESFLPLEGASSDPVTLRRRMLAAAAERRLQKQQTS | loss of binding | disrupted binding | abrogated binding | stabilized gp78 | minimal stabilization of CD3-δ | – | – | – | –
2 | Cue1pC: GST fusion of the cytoplasmic domain of yeast Cue1p (protein, left off: a dimerising Fc or GST, GST fusion of the cytoplasmic domain of yeast Cue1p) QSNQHPSAQRLSATGVNAHGRPQGSTQNALRRTGRVNGGHPVTTQMVETVQNLAPNLHPEQIRYSLENTGSVEETVERYLRGDEFSFPPGFEPSRAPMGANAAVDNNAAGGGEFNDPRKKNMICAENLLDKFHVDLNEDMSNLSFKDLDIEERKRLLVWQARKNLETKLQSDKDLQSLLT | bound | – | – | – | – | bound to neither | bound | no binding | no binding
